Reference: patent publication US7691579B2, “Methods and compositions for producing an enhanced immune response to a human papillomavirus immunogen” (priority 2005, dated 2010)
“And” between values parts separate entries of the source, which are not always exact repeats. Identical values can stand only once.

Legend:
HPV16 pseudovirus = assay: Quantitative HPV16 pseudovirus neutralization assay with sera of vaccinated rabbits; assay type: in vivo; details: individual vaccinated rabbits
Source text: Development of Antibody Response to L1-VLP: To analyze the effect of the GM-CSF/anti-CD40 antibody combination on antibody response, an ELISA assay was employed to measure the titre of anti-L1-VLP antibodies in mice immunized with the chimeric L1-VLP-L2-E2-E7 construct, with or without the GM-CSF/anti-CD40 antibody combination. Both groups of mice produced high titers of anti-L1 VLP antibodies (FIG. 9). There is no detectable anti-L1 VLP antibody in the serum of mice immunized with E7 peptide in combination with GM-CSF and anti-CD40 in IFA, as expected. […] To confirm the prophylactic potential of the chimeric L1-VLP-L2-E7-E2 construct, the anti body titers raised against the chimeric L1-VLP-E7 E2 construct and the L1-VLPs were compared using a recently developed quantitative HPV16 pseudovirus neutralization assay. […]
To test whether the combination of VLP-E7E2 with immune-modulators affects the antibody response, the titer of anti-L1-VLP antibodies was evaluated by ELISA. […] To confirm the prophylactic potential of the chimeric VLPs, we compared the antibody titers raised against the chimeric VLP-E7E2 and wild type VLPs, using a recently developed quantitative HPV16 pseudovirus neutralization assay. […]

[1] = test system: EL-4 target cells pulsed with E7 49-57 peptides; assay: CTL assay (51Cr release) with spleen cells of immunized C57BL/6 mice; assay type: in vivo; details: given in aqueous solution with VLP-E7E2
Method: (§1) Immunization: Mice were immunized subcutaneously at the base of the tail with the chimeric VLPs. GM-CSF (Preprotech, Rocky Hill, N.J.) was given the day before and the same day as the VLP injection. Anti-CD40 (SouthernBiotech, Birmingham Ala.) was given with the VLP. Mice were also immunized with 50 nmoles of peptide in incomplete Freund's adjuvant (IFA) with or without GM-CSF (5 μg/mouse) and anti-CD40 (10 μg/mouse). All vaccines were prepared immediately prior to injection. Each group had 4 mice, and the pooled spleen cells from four mice were used for assays. 10 μg of VLP-E7E2 was given to a mouse. The MW of the VLP-E7E2 is about 5280 Kd (72×L1@55 Kd=3960 Kd, and 12×L2E7E2@110 kd=1320 Kd). The number of moles of VLP-E7E2 in 10 μg of total protein is about […].
(§2) CTL assay: Two (or three) weeks after immunization, spleens were aseptically removed and single cell suspensions are prepared. […] Cytolytic activity of cells is measured by a 4-h assay with ^51Cr-labeled EL-4 or C1R.AAD target cells in triplicate wells. Percent ^51Cr release is calculated as 100×(experimental release-spontaneous release)/(maximum release-spontaneous release). Maximum release is determined from supernatants of cells that are lysed by addition of […]. Spontaneous release is determined from target cells culture in medium. Data are expressed as an average from triplicate wells. […]

[2] = test system: C1R.AAD target cells pulsed with E7 11-20 and E7 86-93 peptides; assay: CTL assay (51Cr release) with spleen cells of immunized AAD mice, response to E7; assay type: in vivo, HLA-A2 transgenic mice (AAD); details: co-injected in aqueous solution
Method: as §1, §2

CD11c+ dendritic cells = assay: FACScan analysis of dendritic cells in draining lymph nodes of immunized mice; assay type: in vivo, HLA-A2 transgenic mice (AAD); details: in VLP-E7E2 immunized mice, aqueous solution
Method: Draining lymph nodes were collected six days after immunization for FACScan analysis. Mice are immunized with 10 μg of chimeric VLP-E7 with or without GM-CSF or an anti-CD40L antibody. Draining inguinal lymph nodes are collected one week after immunization for FACScan analysis. The immunization protocols employed are as follows: Panel A—VLP-E7; Panel B—VLP-E7F+GM-CSF; Panel C—VLP-E7+anti-CD40 antibody; Panel D—VLP-E7+GM-CSF+anti-CD40 antibody. For Data 003, 010, 017, and 024, the percentage of gated is the sum of the number from the upper left and upper right quadrants. For the rest of the data, the percentage of gated is the number from the upper right quadrant indicating the CD80, CD 86 and CD40 positive cells.
Flow cytometric analysis and Abs: Lymph node cells (1×10^6) are taken from mice one week after immunization. […] Data files are analyzed using CellQuest software (BD Biosciences, Mountain View, Calif.).
DCS Play An Important Role In VLP-E7E2/GM-CSF/Anti-CD40 Induced CTL Response In Vivo: It is known that GM-CSF and anti-CD40 play important roles in DC activation (Gurunathan, S. et al. 1998 J. Immunol. 161:4563-4571; Ahlers, J. D. et al. 1997 PNAS USA 94:10856-10861). […] In the Examples reported herein, the phenotypic changes of DC in the draining lymph nodes (DLN) of vaccinated mice were analyzed. […]

Row | Molecule | neutralizing titers (HPV16 pseudovirus; listed as L1-VLP construct) | neutralizing titers (HPV16 pseudovirus; listed as wild type VLPs) | effect on the VLP-E7E2 induced CTL response [1] | effect of co-injection on the VLP-E7E2-induced CTL response to E7 [2] | recruitment or activation of the DCs (CD11c+ dendritic cells)
1 | L1-VLP: VLP of the full length L1 capsid protein of HPV16, control | 40,960 and 163,840 | 163,840 |  |  | 
2 | GM-CSF: murine granulocyte/macrophage colony stimulating factor (Preprotech) (protein, UniProt P01587 18-141, looked up) Granulocyte-macrophage …: APTRSPITVTRPWKHVEAIKEALNLLDDMPVTLNEEVEVVSNEFSFKKLTCVQTRLKIFEQGLRGNFTKLKGALNMTASYYQTYCPPTPETDCETQVTTYADFIDSLKTFLTDIPFECKKPGQK |  |  | no effect | no effect | no effect
